The record followed here is PMC4258470 (Journal of molecular biology, 2014).

As usually defined, the Kd is the equilibrium constant for the complex coming apart. Read a high Kd as lower affinity.

T1: E7(1-98), full length HPV16 E7, unphosphorylated, MBP removed (HPV16, UniProt P03129 1-98)
T1 sequence: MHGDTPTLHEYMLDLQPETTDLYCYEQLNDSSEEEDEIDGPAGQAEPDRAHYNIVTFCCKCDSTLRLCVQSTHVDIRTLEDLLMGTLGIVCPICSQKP

T2: H6GB1-E7(1-98), full length HPV16 E7 fused to His6-GB1, unphosphorylated (HPV16, UniProt P03129 1-98)
T2 sequence: T1 sequence

T3: H6GB1-E7(1-98), full length HPV16 E7 fused to His6-GB1, phosphorylated by CKII (HPV16, UniProt P03129 1-98)
T3 sequence: T1 sequence

B1: TAZ2 domain of mouse CBP (residues 1764-1855) (domain or fragment, UniProt P45481 1764-1855, looked up)
chain: SPQESRRLSIQRCIQSLVHACQCRNANCSLPSCQKMKRVVQHTKGCKRKTNGGCPVCKQLIALCCYHAKHCQENKCPVPFCLNIKHKLRQQQ
B2: pp6b-E7(1-51), phosphorylated E7(1-51) from low risk HPV6b (domain or fragment)
chain: MHGRHVTLKDIVLDLQPPDPVGLHCYEQLVDSSEDEVDEVDGQDSQPLKQH
modifications: also: phosphorylated by CKII, positions not given here
B3: 6b-E7(1-51), unphosphorylated E7(1-51) from low risk HPV6b (domain or fragment)
chain: B2 chain
B4: ppE7(1-51), HPV16 E7(1-51) phosphorylated by casein kinase II at serines 31 and 32 (domain or fragment)
chain: MHGDTPTLHEYMLDLQPETTDLYCYEQLND[pS][pS]EEEDEIDGPAGQAEPDRAH
B5: E7(1-51) from HPV16, unphosphorylated, tag removed (domain or fragment)
chain: MHGDTPTLHEYMLDLQPETTDLYCYEQLNDSSEEEDEIDGPAGQAEPDRAH
B6: ppE7(1-51) C24A,A50C-594, HPV16 E7(1-51) double mutant, phosphorylated and labelled with Alexa Fluor 594 (domain or fragment)
chain: MHGDTPTLHEYMLDLQPETTDLYAYEQLND[pS][pS]EEEDEIDGPAGQAEPDRC(Alexa Fluor 594)H
B7: H6Rb-AB, His6-tagged central pocket of the retinoblastoma protein (domain or fragment)
chain: HTPVRTVMNTIQQLMMILNSASDQPSENLISYFNNCTVNPKESILKRVKDIGYIFKEKFAKAVGQGCVEIGSQRYKLGVRLYYRVMESMLKSEEERLSIQNFSKLLNDNIFHMSLLACALEVVMATYSRSTSQNLDSGTDLSFPWILNVLNLKAFDFYKVIESFIKAEGNLTREMIKHLERCEHRIMESLAWLSDSPLFDLIKQSKGSGSTSLSLFYKKVYRLAYLRLNTLCERLLSEHPELEHIIWTLFQHTLQNEYELMRDRHLDQIMMCSMYGICKVKNIDLKFKIIVTAYKDLPHAVQETFKRVLIKEEEYDSIIVFYNSVFMQRLKTNILQYAST

Like-named read-outs stand apart in the source and are kept apart here. Where no end group is shown, it is not given here. [ ]: non-standard residue; d: D form. pS = N[C@@H](COP(=O)(O)O)C(=O)O

Assay [1] concerns the target T1, E7(1-98), full length HPV16 E7, …. The experiment in a line: NMR titration.
The target of assay [2] is T2, H6GB1-E7(1-98), full length HPV16 E7 …. As to the kind of experiment: pull-down.
Assay [3] has as its target B1. As to the kind of experiment: fluorescence polarisation. In general terms: In fluorescence polarisation assays a small probe gives low polarisation when free and higher when bound to something large.
For assay [4], the target named is TAZ1 domain of mouse CBP (residues 345-439) (mouse, UniProt P45481 345-439). As to the kind of experiment: NMR titration.
Chain of TAZ1 domain of mouse CBP (residues 345-439) (P45481 345-439): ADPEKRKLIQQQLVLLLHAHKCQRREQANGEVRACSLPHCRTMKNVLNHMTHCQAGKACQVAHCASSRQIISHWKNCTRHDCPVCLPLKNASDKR
Assay [5] addresses B1. As to the kind of experiment: NMR titration.
The target in assay [6] is B1. The experiment in a line: fluorescence polarisation. This is another data set of the same source.
Assay [7] addresses T2, H6GB1-E7(1-98), full length HPV16 E7 …. The experiment in a line: pull-down. The source holds these as a separate data set.
Assay [8] has as its target T3, H6GB1-E7(1-98), full length HPV16 E7 …. The experiment in a line: pull-down.

Take B1: the binding result in assay [1] and in assay [2] was “binds” throughout.

In assay [3], B2 gave a Kd of 31 ± 3 nM.

On to B3, for which, in assay [3], binding was put at a Kd of 79 ± 10 nM. This Kd is about 2.5-fold higher than that of the molecule before.

B4 displayed a Kd in assay [4] of 7 ± 0.3 µM. Also, in assay [5], the “Kd of the primary binding site (Kd1, 2-site model)” value amounted to 4 ± 3 nM and the “Kd of the secondary binding site (Kd2, 2-site model)” value turned out to be 33 ± 2 µM. Further, the affinity in assay [3], expressed as Kd, was 7 ± 3 nM.

In the case of B5, the Kd in assay [3] was 22 ± 6 nM.

In assay [6], B6 came in with a Kd of 28 ± 6 nM.

On to B7, for which the binding result in assay [7] and in assay [8] was “binds” in each case.
